Measured values reported in publication PMC3951589.

Molecular target: pIICASV-GP2(267–351) (not stated | CAS virus (CASV))
Test: SEC

## pIICASV-GP2(267–351) (domain or fragment)
  stoichiometry N: 3
